From paper PMC2898215 come the findings set out here.

In this series the target is streptavidin (UniProt P22629 25-183). In words: capillary electrophoresis.
Sequence of streptavidin (P22629 25-183): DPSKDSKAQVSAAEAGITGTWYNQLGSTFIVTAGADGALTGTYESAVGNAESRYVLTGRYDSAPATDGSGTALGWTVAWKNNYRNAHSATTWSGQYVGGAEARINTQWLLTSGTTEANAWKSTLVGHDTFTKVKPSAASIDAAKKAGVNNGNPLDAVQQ
CAAACCTCGCGCCGATTGCAGGCAGGTTTG (structured_DNA) [S10-113 minimal] displayed a binding signal of 50 % bound.

Molecule CATATTTAGCGCGTGTGTCGCAACACCTATATATG (structured_DNA) [S10-104 minimal] displayed a binding signal of 53 % bound.

In turn, TAGGACAAACGCACACGGCGCAGTGTTTTGACCTA (structured_DNA) [S10-103 minimal] came in with a binding signal of 48 % bound.

CTGTGAGACGACGCACCGGTCGCAGGTTTTGTCTCACAG (structured_DNA) [NRR] displayed a binding signal of 33 % bound.

Regarding CACGTAACGCATACGCCGCAGTATTTATGTG (structured_DNA) [S10-101 minimal], the binding signal was above 70 % bound.

As to CTTGTGTTTGCTCCCCGACGCAGGGGACACAAG (structured_DNA) [S10-115 minimal], the binding signal was determined as 60 % bound.
